According to the MegaScale stability set (Tsuboyama et al. 2023):

B1: HHH_rd1_0493 (parent)
chain: RDEDEKEKIKEALKRGNEDKAKEIAKRANVSPEEYERLRKEAE

Variants of: B1
Assay: folding stability dG (cDNA display proteolysis); higher = more stable
Conditions: PBS, room temperature

| Variant | folding stability dG [kJ/mol] |
| --- | --- |
| A21W | 2.15 |
| A21K | 0.77 |
| A21Y | 1.49 |
| A21M | 2.12 |
| A21Q | 1.52 |
| A21N | 2.02 |
| A21E | 2.38 |
| A21I | 2.14 |
| A21D | 2.18 |
| A21G | 4.71 |
| A21L | 2.26 |
| A21V | 2.46 |
| A21T | 1.77 |
| A21C | 5.42 |
| A21F | 2.51 |
| A21S | 4.63 |
| A21P | 1.87 |
| A21H | 1.31 |
| A21R | 1.41 |
| L13P | 1.82 |
| L13Y | 3.68 |
| L13R | 1.68 |
| L13T | 1.97 |
| L13K | 1.14 |

| Variant | folding stability dG [kJ/mol] |
| --- | --- |
| L13H | 3.62 |
| L13I | 11.9 |
| L13Q | 2.57 |
| L13V | 6.61 |
| L13N | 1.74 |
| L13S | 1.39 |
| L13M | 10.4 |
| L13W | 4.77 |
| D19T | 12.8 |
| D19P | 11 |
| D19Q | 13.2 |
| D19Y | 10.5 |
| D19H | 11.9 |
| D19F | 10.9 |
| D19G | 11.5 |
| D19A | 13.9 |
| D19M | 12.7 |
| D19W | 11.4 |
| D19I | 12.3 |
| D19N | 12 |
| D19E | 13.7 |
| D19L | 12.5 |
| D19R | 12.4 |
| D19S | 12.3 |

| Variant | folding stability dG [kJ/mol] |
| --- | --- |
| D19V | 12.5 |
| D19K | 12.8 |
| R15T | 11.7 |
| R15S | 13 |
| R15C | 9.64 |
| R15H | 12.5 |
| R15L | 12.9 |
| R15E | 13.5 |
| R15V | 11.8 |
| R15F | 11 |
| R15G | 11.3 |
| R15D | 11.9 |
| R15W | 11.7 |
| R15Y | 11.3 |
| R15P | 2.62 |
| R15Q | 14.2 |
| R15A | 14.1 |
| R15K | 12.2 |
| R15I | 11.6 |
| R15M | 13.4 |
| R15N | 13.3 |
| K22D | 7.22 |
| K22E | 9.44 |
| K22A | 10.9 |

| Variant | folding stability dG [kJ/mol] |
| --- | --- |
| K22C | 7.49 |
| K20H | 12 |
| K20L | 18 |
| K20R | 12.5 |
| K20Q | 13.3 |
| K20A | 13.2 |
| K20N | 9.5 |
| K20G | 10.5 |
| K20W | 12.6 |
| K20T | 11.6 |
| K20M | 14.1 |
| K20S | 10.9 |
| K20P | 3.89 |
| K20Y | 13.1 |
| K20E | 16 |
| K20I | 13.2 |
| K20F | 12.5 |
| K20D | 11.9 |
| K20V | 13.5 |
| E18F | 13.6 |
| E18L | 12 |
| E18R | 9 |
| E18P | 10.4 |
| E18I | 13.6 |

| Variant | folding stability dG [kJ/mol] |
| --- | --- |
| E18S | 10.3 |
| E18G | 8.61 |
| E18W | 10.9 |
| E18N | 9.6 |
| E18Q | 10.6 |
| E18T | 11.9 |
| E18H | 12.3 |
| E18A | 10.8 |
| E18Y | 13.4 |
| E18K | 9.39 |
| E18V | 13.3 |
| E18M | 11.5 |
| E18C | 10.8 |
| E18D | 10.4 |
| G16T | 2.5 |
| G16W | 4.05 |
| G16N | 8.01 |
| G16F | 6.48 |
| G16V | 1.86 |
| G16M | 6.11 |
| G16P | 3.21 |
| G16Q | 6.54 |
| G16C | 7.36 |
| G16L | 5.82 |

| Variant | folding stability dG [kJ/mol] |
| --- | --- |
| G16E | 4.99 |
| G16D | 6.16 |
| G16R | 8.26 |
| G16H | 8.51 |
| G16S | 5.39 |
| G16K | 7.24 |
| G16A | 6.97 |
| G16Y | 4.18 |
| G16I | 1.99 |
| K14P | 1.74 |
| K14T | 8.67 |
| K14Q | 9.61 |
| K14H | 9.52 |
| K14L | 11.2 |
| K14G | 8.3 |
| K14F | 7.52 |
| K14S | 9.86 |
| K14A | 10.6 |
| K14N | 7.58 |
| K14M | 11.7 |
| K14V | 9.77 |
| K14E | 7.3 |
| K14Y | 8.24 |
| K14W | 7.95 |

| Variant | folding stability dG [kJ/mol] |
| --- | --- |
| K14C | 9.38 |
| K14I | 11.2 |
| K14R | 13.9 |
| K14D | 4.61 |
| N17R | 11.2 |
| N17T | 6.8 |
| N17G | 6.11 |
| N17Y | 11.5 |
| N17C | 8.33 |
| N17W | 12.9 |
| N17K | 10.1 |
| N17F | 12.5 |
| N17E | 14.2 |
| N17A | 11.1 |
| N17H | 12.6 |
| N17P | 4.33 |
| N17Q | 13.4 |
| N17M | 12.3 |
| N17V | 6.08 |
| N17D | 15.8 |
| N17I | 6.44 |
| N17L | 13.1 |
| N17S | 9.15 |
